{"source": "patent US20230395193A1", "about": "(priority 2020, published 2023)", "biological_target": "T1, Orf8-IL17RA interaction (Homo sapiens, UniProt Q96F46)", "T1 construct": "co-immunoprecipitation of endogenous IL17RA with Strep-tagged Orf8; host or cells: HEK293T", "T1 sequence (Q96F46 33-866)": "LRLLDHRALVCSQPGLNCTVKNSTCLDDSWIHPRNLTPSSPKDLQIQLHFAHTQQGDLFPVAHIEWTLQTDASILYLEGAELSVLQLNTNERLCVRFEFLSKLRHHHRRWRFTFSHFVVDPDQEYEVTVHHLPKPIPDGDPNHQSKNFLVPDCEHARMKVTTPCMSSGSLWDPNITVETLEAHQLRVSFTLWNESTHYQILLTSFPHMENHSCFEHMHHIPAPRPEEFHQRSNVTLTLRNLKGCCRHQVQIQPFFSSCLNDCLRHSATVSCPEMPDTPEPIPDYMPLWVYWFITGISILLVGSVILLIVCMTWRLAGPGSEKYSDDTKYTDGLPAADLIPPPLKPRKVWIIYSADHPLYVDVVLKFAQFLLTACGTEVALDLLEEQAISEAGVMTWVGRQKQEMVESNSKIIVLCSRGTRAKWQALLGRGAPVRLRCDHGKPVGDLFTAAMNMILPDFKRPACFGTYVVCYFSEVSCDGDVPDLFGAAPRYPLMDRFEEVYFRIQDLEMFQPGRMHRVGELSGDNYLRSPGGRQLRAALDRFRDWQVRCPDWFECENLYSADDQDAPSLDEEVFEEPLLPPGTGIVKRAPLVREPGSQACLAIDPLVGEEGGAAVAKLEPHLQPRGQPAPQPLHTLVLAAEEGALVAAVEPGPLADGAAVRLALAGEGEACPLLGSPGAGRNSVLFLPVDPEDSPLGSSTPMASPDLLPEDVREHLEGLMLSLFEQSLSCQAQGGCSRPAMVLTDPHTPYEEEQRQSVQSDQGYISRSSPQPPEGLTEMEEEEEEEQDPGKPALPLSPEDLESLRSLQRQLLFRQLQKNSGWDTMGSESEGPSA", "assay_type": "binding"}
{"substance": "IL-17A", "values": [{"measurement": "Effect on Orf8-IL17RA interaction (co-immunoprecipitation, in words)", "value": "does not disrupt the interaction with Orf8"}]}
